Assay results as given in paper PMC9640706, “Structure of the IscB–ωRNA ribonucleoprotein complex, the likely ancestor of CRISPR-Cas9”.

Molecular target: T1, OgeuIscB ΔHNH (human gut metagenome (OgeuIscB), UniProt PDB:7XHT_4 1-198+=GGSG+296-496, internal_change)
T1 sequence: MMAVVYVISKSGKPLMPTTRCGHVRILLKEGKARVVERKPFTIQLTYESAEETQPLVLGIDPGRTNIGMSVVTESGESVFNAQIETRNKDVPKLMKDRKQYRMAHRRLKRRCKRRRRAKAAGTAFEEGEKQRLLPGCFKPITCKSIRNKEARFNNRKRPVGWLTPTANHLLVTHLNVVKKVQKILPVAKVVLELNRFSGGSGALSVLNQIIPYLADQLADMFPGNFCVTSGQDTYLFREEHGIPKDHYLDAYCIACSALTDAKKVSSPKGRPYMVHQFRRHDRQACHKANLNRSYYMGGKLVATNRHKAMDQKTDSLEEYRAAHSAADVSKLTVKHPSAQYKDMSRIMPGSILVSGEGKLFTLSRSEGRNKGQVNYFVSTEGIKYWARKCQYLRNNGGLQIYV
Experiment: cryo-EM (2.6 Å); Mg2+ bound in RuvC site; Purification: 20 mM Tris-HCl pH 8.0, NaCl gradient 0.075-2 M (heparin), 10% glycerol, 5 mM MgCl2, 2 mM DTT; cryo-EM sample buffer not in the material
Details: protein: recombinant; strand 1 ωRNA, strand 2 TS, strand 3 NTS; NTS pairs with TS nt 1-14; ωRNA guide nt 1-27 complementary to TS nt 15-41 (17 bp resolved); TS 3' tail 8 nt

B1: ωRNA (233 nt) + partially double-stranded target DNA (TS 49 nt, NTS 14 nt) (mixed)
RNA: GGAAUUGUGAGCGGAUAACAAUUCCCCGGCUCUUCCAACUUUAUGGUUGCGACCGUAGGUUGAAAGAGCACAGGCUGAGACAUUCGUAAGGCCGAAAGACCGGACGCACCCUGGGAUUUCCCCAGUCCCCGGAACUGCAUAGCGGAUGCCAGUUGAUGGAGCAAUCUAUCAGAUAAGCCAGGGGGAACAAUCACCUCUCUGUAUCAGAGAGAGUUUUACAAAAGGAGGAACGG
DNA 1: GAATGGTTTTCTTCGGGGAATTGTTATCCGCTCACAATTCCTTAGAAAA
DNA 2: GAAGAAAACCATTC
  binding result: binds
